According to PMC4956541:

Substrate: O=S(=O)(O)O
Test: cells, lysate or membranes
Assay type: cell-based, Homo sapiens
Settings: ND96(Cl-) bath, pH 7.4, extracellular sulfate, labelled compound

B1: human SLC26A1 (Homo sapiens) (protein)
chain: MDESPEPLQQGRGPVPVRRQRPAPRGLREMLKARLWCSCSCSVLCVRALVQDLLPATRWLRQYRPREYLAGDVMSGLVIGIILVPQAIAYSLLAGLQPIYSLYTSFFANLIYFLMGTSRHVSVGIFSLLCLMVGQVVDRELQLAGFDPSQDGLQPGANSSTLNGSAAMLDCGRDCYAIRVATALTLMTGLYQVLMGVLRLGFVSAYLSQPLLDGFAMGASVTILTSQLKHLLGVRIPRHQGPGMVVLTWLSLLRGAGQANVCDVVTSTVCLAVLLAAKELSDRYRHRLRVPLPTELLVIVVATLVSHFGQLHKRFGSSVAGDIPTGFMPPQVPEPRLMQRVALDAVALALVAAAFSISLAEMFARSHGYSVRANQELLAVGCCNVLPAFLHCFATSAALAKSLVKTATGCRTQLSSVVSATVVLLVLLALAPLFHDLQRSVLACVIVVSLRGALRKVWDLPRLWRMSPADALVWAGTAATCMLVSTEAGLLAGVILSLLSLAGRTQRPRTALLARIGDTAFYEDATEFEGLVPEPGVRVFRFGGPLYYANKDFFLQSLYSLTGLDAGCMAARRKEGGSETGVGEGGPAQGEDLGPVSTRAALVPAAAGFHTVVIDCAPLLFLDAAGVSTLQDLRRDYGALGISLLLACCSPPVRDILSRGGFLGEGPGDTAEEEQLFLSVHDAVQTARARHRELEATDAHL
Q: For B1, which K0.5 is on record?
A: The K0.5 was 0.26 ± 0.04 mM.
